Results taken from the supplement of paper PMC5998384.

How the values were obtained:
[1] = system: HeLa Kyoto; experiment: solubility change mitosis vs G1/S (difference of NP-40 vs SDS log2 ratios) (log2 ratio difference); higher = more soluble in mitosis
[2] = system: HeLa Kyoto; experiment: solubility in G1/S (NP-40 vs SDS abundance) (log2 ratio); higher = more soluble; settings: cell cycle stage: G1/S
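Wherever solubility change mitosis vs G1/S (difference of NP-40 vs SDS log2 ratios) is given: synchronized HeLa Kyoto cells (double thymidine block for G1/S, nocodazole release for mitosis), protein amounts in NP-40 versus SDS lysates quantified by mass spectrometry, three biological replicates.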
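Wherever solubility in G1/S (NP-40 vs SDS abundance) is given: HeLa Kyoto cells arrested at G1/S by double thymidine block, proteins quantified by TMT10plex mass spectrometry in mild NP-40 versus SDS extracts, three biological replicates.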

| Sequence | solubility change mitosis (log2) [1] | solubility in G1/S (log2) [2] |
| --- | --- | --- |
| MHQTLCLNPESLKMSACSDFVEHIWKPGSCKNCFCLRSDHQLVAGPPQPRAGSLPPPPRLPPRPENCRLEDEGVNSSPYSKPTIAVKPTMMSSEASDVWTEANLSAEVSQVIWRRAPGKLPLPKQEDAPVVYLGSFRGVQKPAGPSTSPDGNSRCPPAYTMVGLHNLEPRGERNIAFHPVSFPEEKAVHKEKPSFPYQDRPSTQESFRQKLAAFAGTTSGCHQGPGPLRESLPSEDDSDQRCSPSGDSEGGEYCSILDCCPGSPVAKAASQTAGSRGRHGGRDCSPTCWEQGKCSGPAEQEKRGPSFPKECCSQGPTAHPSCLGPKKLSLTSEAAISSDGLSCGSGSGSGSGASSPFVPHLESDYCSLMKEPAPEKQQDPGCPGVTPSRCLGLTGEPQPPAHPREATQPEPIYAESTKRKKAAPVPSKSQAKIEHAAAAQGQGQVCTGNAWAQKAASGWGRDSPDPTPQVSATITVMAAHPEEDHRTIYLSSPDSAVGVQWPRGPVSQNSEVGEEETSAGQGLSSRESHAHSASESKPKERPAIPPKLSKSSPVGSPVSPSAGGPPVSPLADLSDGSSGGSSIGPQPPSQGPADPAPSCRTNGVAISDPSRCPQPAASSASEQRRPRFQAGTWSRQCRIEEEEEVEQELLSHSWGRETKNGPTDHSNSTTWHRLHPTDGSSGQNSKVGTGMSKSASFAFEFPKDRSGIETFSPPPPPPKSRHLLKMNKSSSDLEKVSQGSAESLSPSFRGVHVSFTTGSTDSLASDSRTCSDGGPSSELAHSPTNSGKKLFAPVPFPSGSTEDVSPSGPQQPPPLPQKKIVSRAASSPDGFFWTQGSPKPGTASPKLNLSHSETNVHDESHFSYSLSPGNRHHPVFSSSDPLEKAFKGSGHWLPAAGLAGNRGGCGSPGLQCKGAPSASSSQLSVSSQASTGSTQLQLHGLLSNISSKEGTYAKLGGLYTQSLARLVAKCEDLFMGGQKKELHFNENNWSLFKLTCNKPCCDSGDAIYYCATCSEDPGSTYAVKICKAPEPKTVSYCSPSVPVHFNIQQDCGHFVASVPSSMLSSPDAPKDPVPALPTHPPAQEQDCVVVITREVPHQTASDFVRDSAASHQAEPEAYERRVCFLLLQLCNGLEHLKEHGIIHRDLCLENLLLVHCTLQAGPGPAPAPAPAPAPAAAAPPCSSAAPPAGGTLSPAAGPASPEGPREKQLPRLIISNFLKAKQKPGGTPNLQQKKSQARLAPEIVSASQYRKFDEFQTGILIYELLHQPNPFEVRAQLRERDYRQEDLPPLPALSLYSPGLQQLAHLLLEADPIKRIRIGEAKRVLQCLLWGPRRELVQQPGTSEEALCGTLHNWIDMKRALMMMKFAEKAVDRRRGVELEDWLCCQYLASAEPGALLQSLKLLQLL [SGK223] | -0.132 | -0.249 |
| MILTKAQYDEIAQCLVSVPPTRQSLRKLKQRFPSQSQATLLSIFSQEYQKHIKRTHAKHHTSEAIESYYQRYLNGVVKNGAAPVLLDLANEVDYAPSLMARLILERFLQEHEETPPSKSIINSMLRDPSQIPDGVLANQVYQCIVNDCCYGPLVDCIKHAIGHEHEVLLRDLLLEKNLSFLDEDQLRAKGYDKTPDFILQVPVAVEGHIIHWIESKASFGDECSHHAYLHDQFWSYWNRFGPGLVIYWYGFIQELDCNRERGILLKACFPTNIVTLCHSIA [C15ORF41] | 0.0246 | 0.176 |
| MIPLEKPGSGGSSPGATSGSGRAGRGLSGPCRPPPPPQARGLLTEIRAVVRTEPFQDGYSLCPGRELGRGKFAVVRKCIKKDSGKEFAAKFMRKRRKGQDCRMEIIHEIAVLELAQDNPWVINLHEVYETASEMILVLEYAAGGEIFDQCVADREEAFKEKDVQRLMRQILEGVHFLHTRDVVHLDLKPQNILLTSESPLGDIKIVDFGLSRILKNSEELREIMGTPEYVAPEILSYDPISMATDMWSIGVLTYVMLTGISPFLGNDKQETFLNISQMNLSYSEEEFDVLSESAVDFIRTLLVKKPEDRATAEECLKHPWLTQSSIQEPSFRMEKALEEANALQEGHSVPEINSDTDKSETKESIVTEELIVVTSYTLGQCRQSEKEKMEQKAISKRFKFEEPLLQEIPGEFIY [STK17A] | -0.0546 | 0.0848 |
| MKKSYSGGTRTSSGRLRRLGDSSGPALKRSFEVEEVETPNSTPPRRVQTPLLRATVASSTQKFQDLGVKNSEPSARHVDSLSQRSPKASLRRVELSGPKAAEPVSRRTELSIDISSKQVENAGAIGPSRFGLKRAEVLGHKTPEPAPRRTEITIVKPQESAHRRMEPPASKVPEVPTAPATDAAPKRVEIQMPKPAEAPTAPSPAQTLENSEPAPVSQLQSRLEPKPQPPVAEATPRSQEATEAAPSCVGDMADTPRDAGLKQAPASRNEKAPVDFGYVGIDSILEQMRRKAMKQGFEFNIMVVGQSGLGKSTLINTLFKSKISRKSVQPTSEERIPKTIEIKSITHDIEEKGVRMKLTVIDTPGFGDHINNENCWQPIMKFINDQYEKYLQEEVNINRKKRIPDTRVHCCLYFIPATGHSLRPLDIEFMKRLSKVVNIVPVIAKADTLTLEERVHFKQRITADLLSNGIDVYPQKEFDEDSEDRLVNEKFREMIPFAVVGSDHEYQVNGKRILGRKTKWGTIEVENTTHCEFAYLRDLLIRTHMQNIKDITSSIHFEAYRVKRLNEGSSAMANGMEEKEPEAPEM [SEPT9] | -0.0335 | 0.198 |
| MKLLRRAWRRRAALGLGTLALCGAALLYLARCAAEPGDPRAMSGRSPPPPAPARAAAFLAVLVASAPRAAERRSVIRSTWLARRGAPGDVWARFAVGTAGLGAEERRALEREQARHGDLLLLPALRDAYENLTAKVLAMLAWLDEHVAFEFVLKADDDSFARLDALLAELRAREPARRRRLYWGFFSGRGRVKPGGRWREAAWQLCDYYLPYALGGGYVLSADLVHYLRLSRDYLRAWHSEDVSLGAWLAPVDVQREHDPRFDTEYRSRGCSNQYLVTHKQSLEDMLEKHATLAREGRLCKREVQLRLSYVYDWSAPPSQCCQRREGIP [B3GALT6] | 0.135 | -0.748 |
| MKMEEAVGKVEELIESEAPPKASEQETAKEEDGSVELESQVQKDGVADSTVISSMPCLLMELRRDSSESQLASTESDKPTTGRVYESDSSNHCMLSPSSSGHLADSDTLSSAEENEPSQAETAVEGDPSGVSGATVGRKSRRSRSESETSTMAAKKNRQSSDKQNGRVAKVKGHRSQKHKERIRLLRQKREAAARKKYNLLQDSSTSDSDLTCDSSTSSSDDDEEVSGSSKTITAEIPDGPPVVAHYDMSDTNSDPEVVNVDNLLAAAVVQEHSNSVGGQDTGATWRTSGLLEELNAEAGHLDPGFLASDKTSAGNAPLNEEINIASSDSEVEIVGVQEHARCVHPRGGVIQSVSSWKHGSGTQYVSTRQTQSWTAVTPQQTWASPAEVVDLTLDEDSRRKYLL [C18ORF25] | -0.243 | -0.0209 |
| MKRQSERDSSPSGRGSSSSAKRPREREREAEAGGRRAAHKASGGAKHPVPARARDKPRGSGSGGGGHRDGRGTGDANHRASSGRSSGSGAGGGGRGGKASGDPGASGMSPRASPLPPPPPPPGAEPACPGSSAAAPEYKTLLISSLSPALPAEHLEDRLFHQFKRFGEISLRLSHTPELGRVAYVNFRHPQDAREARQHALARQLLLYDRPLKVEPVYLRGGGGSSRRSSSSSAAASTPPPGPPAPADPLGYLPLHGGYQYKQRSLSPVAAPPLREPRARHAAAAFALDAAAAAAVGLSRERALDYYGLYDDRGRPYGYPAVCEEDLMPEDDQRATRNLFIGNLDHSVSEVELRRAFEKYGIIEEVVIKRPARGQGGAYAFLKFQNLDMAHRAKVAMSGRVIGRNPIKIGYGKANPTTRLWVGGLGPNTSLAALAREFDRFGSIRTIDHVKGDSFAYIQYESLDAAQAACAKMRGFPLGGPDRRLRVDFAKAEETRYPQQYQPSPLPVHYELLTDGYTRHRNLDADLVRDRTPPHLLYSDRDRTFLEGDWTSPSKSSDRRNSLEGYSRSVRSRSGERWGADGDRGLPKPWEERRKRRSLSSDRGRTTHSPYEERSRTKGSGQQSERGSDRTPERSRKENHSSEGTKESSSNSLSNSRHGAEERGHHHHHHEAADSSHGKKARDSERNHRTTEAEPKPLEEPKHETKKLKNLSEYAQTLQLGWNGLLVLKNSCFPTSMHILEGDQGVISSLLKDHTSGSKLTQLKIAQRLRLDQPKLDEVTRRIKQGSPNGYAVLLATQATPSGLGTEGMPTVEPGLQRRLLRNLVSYLKQKQAAGVISLPVGGSKGRDGTGMLYAFPPCDFSQQYLQSALRTLGKLEEEHMVIVIVRDTA [RBM15B] | 0.504 | -0.311 |
| MLGTVKMEGHETSDWNSYYADTQEAYSSVPVSNMNSGLGSMNSMNTYMTMNTMTTSGNMTPASFNMSYANPGLGAGLSPGAVAGMPGGSAGAMNSMTAAGVTAMGTALSPSGMGAMGAQQAASMNGLGPYAAAMNPCMSPMAYAPSNLGRSRAGGGGDAKTFKRSYPHAKPPYSYISLITMAIQQAPSKMLTLSEIYQWIMDLFPYYRQNQQRWQNSIRHSLSFNDCFVKVARSPDKPGKGSYWTLHPDSGNMFENGCYLRRQKRFKCEKQPGAGGGGGSGSGGSGAKGGPESRKDPSGASNPSADSPLHRGVHGKTGQLEGAPAPGPAASPQTLDHSGATATGGASELKTPASSTAPPISSGPGALASVPASHPAHGLAPHESQLHLKGDPHYSFNHPFSINNLMSSSEQQHKLDFKAYEQALQYSPYGSTLPASLPLGSASVTTRSPIEPSALEPAYYQGVYSRPVLNTS [FOXA1] | 0.0934 | 0.392 |
| MLPGVGVFGTSLTARVIIPLLKDEGFAVKALWGRTQEEAEELAKEMSVPFYTSRIDEVLLHQDVDLVCINLPPPLTRQIAVKTLGIGKNVICDRTATPLDAFRMTSAAHYYPKLMSIMGNVLRFLPAFVRMKQLIEEGYVGEPLVCEVQVHGGSLLGKKYNWSCDDLMGGGGLHSVGTYIIDLLTFLTGQKAVKVHGLLKTFVKQTDHIKGIRQITSDDFCTFQMVLEGGVCCTVTLNFNVPGEFKQDVTVVGSAGRLLAVGTDLYGQRNSAPEQELLVQDATPVSNSLLPEKAFSDIPSPYLRGTIKMMQAVRQAFQDQDDRRTWDGRPLTMAATFDDCLYALCVVDTIKRSSQTGEWQNIAIMTEEPELSPAYLISEAMRRSRMSLYC [GFOD1] | -0.244 | -0.0575 |
| MLPPMALPSVSWMLLSCLMLLSQVQGEEPQRELPSARIRCPKGSKAYGSHCYALFLSPKSWTDADLACQKRPSGNLVSVLSGAEGSFVSSLVKSIGNSYSYVWIGLHDPTQGTEPNGEGWEWSSSDVMNYFAWERNPSTISSPGHCASLSRSTAFLRWKDYNCNVRLPYVCKFTD [PAP1] | -0.21 | 0.102 |
